These results are taken from the supplement of paper PMC7877785.

This series is described as follows: self-splicing fitness, log relative to wild type (ln ratio); higher = more splicing; Tetrahymena group I intron in knt gene, E. coli kanamycin selection, DiMSum; sequences stand for … in CUCUCU…GGAGGGAAAAGUUAUCAGGCAUGCACCUGGUAGCUAGUCUUUAAACCAAUAGAUUGCAUCGGUUUAAAAGGCAAGACCGUCAAAUUGCGGGAAAGGGGUCAACAGCCGUUCAGUACCAAGUCUCAGGGGAAACUUUGAGAUGGCCUUGCAAAGGGUAUGGUAAUAAGCUGACGGACAUGGUCCUAACCACGCAGCCAAGUCCUAAGUCAACAGAUCUUCUGUUGAUAUGGAUGCAGUUCACAGACUAAAUGUCGGUCGGGGAAGAUGUAUUCUUCUCAUAAGAUAUAGUCGGACCUCUCCUUAAUGGGAGCUAGCGGAUGAAGUGAUGCAACACUGGAGCCGCUGGGAACUAAUUUGUAUGCGAAAGUAUAUUGAUUAGUUUUGGAGUACUCGUGGUCG
A digest of the protocol: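 Colonies from six replicate transformations of E. coli BL21(DE3) were pooled and amplicon-sequenced on an Illumina HiSeq 2500. The library placed an intron with all eight P1ex-region nucleotides randomised inside the knt kanamycin-resistance gene on pET-22b(+), and cells grew overnight at 37°C or 30°C on LB agar with or without 25 μg/mL kanamycin (plus 100 μg/mL carbenicillin, 50 μM IPTG, 0.2% rhamnose). Fitness is the DiMSum error-weighted combination of wild-type-normalised replicate fold changes, kanamycin versus none.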

± gives the uncertainty stated by the source.

For the sequence GACCAGCAAUAUUACGCUAG, the “self-splicing fitness (ln)” value runs as follows: (30 °C) -1.29 ± 0.087; (37 °C) -0.88 ± 0.1.
Take GACCAGCAAUAUUACGGCAC: the “self-splicing fitness (ln)” value runs as follows: (30 °C) -0.0527 ± 0.076; (37 °C) 0.491 ± 0.11.
Consider GACCAGCAAUAUUACGGCAG, for which the “self-splicing fitness (ln)” value runs as follows: (30 °C) -3.74 ± 0.3; (37 °C) -3.28 ± 0.25.
The matching figures for GACCAGCAAUAUUACGGCCA: -0.323 ± 0.077 and 0.208 ± 0.13.
In the case of GACCAGCAAUAUUACGGCGG, the “self-splicing fitness (ln)” value is, setting by setting: (30 °C) -2.55 ± 0.2; (37 °C) -2.79 ± 0.27.
As for GACCAGCAAUAUUACGGGGU, the “self-splicing fitness (ln)” value is -3.79 ± 0.19 (30 °C) and -1.82 ± 0.14 (37 °C).
As for GACCAGCAAUAUUACGGUCG, the “self-splicing fitness (ln)” value (30 °C) was -1.98 ± 0.077 and the “self-splicing fitness (ln)” value (37 °C) was -1.47 ± 0.11.
Taken in the same sequence, the figures for GACCAGCAAUAUUACGGUCU were -3.61 ± 0.17 and -3.16 ± 0.21.
As to GACCAGCAAUAUUACGUAAC, the “self-splicing fitness (ln)” value was -0.981 ± 0.065 (30 °C) and -0.475 ± 0.079 (37 °C).
Regarding GACCAGCAAUAUUACGUAAG, the “self-splicing fitness (ln)” value (30 °C) is -1.55 ± 0.052 and the “self-splicing fitness (ln)” value (37 °C) is -0.817 ± 0.076.
The matching figures for GACCAGCAAUAUUACGUACA: -0.568 ± 0.067 and 0.0774 ± 0.083.
Taken in the same sequence, the figures for GACCAGCAAUAUUACGUAUC were -0.803 ± 0.1 and -0.659 ± 0.11.
The matching figures for GACCAGCAAUAUUACGUCCG: -4.09 ± 0.27 and -2.12 ± 0.17.
Consider GACCAGCAAUAUUACGUCUA, for which the “self-splicing fitness (ln)” value runs as follows: (30 °C) -1.44 ± 0.085; (37 °C) -0.724 ± 0.081.
Taken in the same sequence, the figures for GACCAGCAAUAUUACGUUCA were -0.884 ± 0.1 and -0.163 ± 0.097.
Taken in the same sequence, the figures for GACCAGCAAUAUUACGUUGC were -1.78 ± 0.067 and -1.56 ± 0.1.
Taken in the same sequence, the figures for GACGAGCAAUAUUACGACGC were -0.758 ± 0.13 and -0.747 ± 0.15.
For GACGAGCAAUAUUACGAGUC, the “self-splicing fitness (ln)” value (30 °C) was -3.37 ± 0.2 and the “self-splicing fitness (ln)” value (37 °C) is -2.85 ± 0.31.
Turning to GACGAGCAAUAUUACGAGUG, the “self-splicing fitness (ln)” value is -4.04 ± 0.31 (30 °C) and -2.63 ± 0.19 (37 °C).
In the case of GACGAGCAAUAUUACGAUAU, the “self-splicing fitness (ln)” value (30 °C) was -3.83 ± 0.33 and the “self-splicing fitness (ln)” value (37 °C) was -2.15 ± 0.32.
Turning to GACGAGCAAUAUUACGAUUA, the “self-splicing fitness (ln)” value is, setting by setting: (30 °C) -2.73 ± 0.23; (37 °C) -1.55 ± 0.22.
The matching figures for GACGAGCAAUAUUACGCACA: -2.32 ± 0.15 and -0.917 ± 0.14.
GACGAGCAAUAUUACGCACU: the “self-splicing fitness (ln)” value runs as follows: (30 °C) -1.32 ± 0.15; (37 °C) -0.506 ± 0.16.
With GACGAGCAAUAUUACGCCUG, the “self-splicing fitness (ln)” value (37 °C) is -1.56 ± 0.47.
For the sequence GACGAGCAAUAUUACGCUUU, the “self-splicing fitness (ln)” value runs as follows: (30 °C) -3.17 ± 0.46; (37 °C) -0.0656 ± 0.19.
The matching figures for GACGAGCAAUAUUACGGAAA: -2.69 ± 0.3 and -1.47 ± 0.29.
Taken in the same sequence, the figures for GACGAGCAAUAUUACGGCCC were -0.0683 ± 0.45 and -0.45 ± 0.4.
For GACGAGCAAUAUUACGGGGC, the “self-splicing fitness (ln)” value runs as follows: (30 °C) -2.83 ± 0.13; (37 °C) -2.25 ± 0.16.
With GACGAGCAAUAUUACGGUCU, the “self-splicing fitness (ln)” value reads like this: (30 °C) -2.33 ± 0.15; (37 °C) -2.8 ± 0.27.
The matching figures for GACGAGCAAUAUUACGGUGG: -3.01 ± 0.16 and -2.77 ± 0.19.
For GACGAGCAAUAUUACGGUGU, the “self-splicing fitness (ln)” value is -4.63 ± 0.45 (30 °C) and -2.64 ± 0.22 (37 °C).
The matching figures for GACGAGCAAUAUUACGUGUG: -2.9 ± 0.087 and -1.01 ± 0.077.
Taken in the same sequence, the figures for GACGAGCAAUAUUACGUUAU were -4.17 ± 0.39 and -2.36 ± 0.31.
The matching figures for GACGAGCAAUAUUACGUUUC: -2.64 ± 0.24 and -3.33 ± 0.33.
For GACGAGCAAUAUUACGUUUU, the “self-splicing fitness (ln)” value is -4.36 ± 0.28 (30 °C) and -1.61 ± 0.13 (37 °C).
As to GACUAGCAAUAUUACGAAGA, the “self-splicing fitness (ln)” value runs as follows: (30 °C) -1.87 ± 0.13; (37 °C) -0.416 ± 0.13.
The matching figures for GACUAGCAAUAUUACGACCG: -0.436 ± 0.3 and -0.537 ± 0.34.
Take GACUAGCAAUAUUACGACGA: the “self-splicing fitness (ln)” value runs as follows: (30 °C) -0.416 ± 0.074; (37 °C) 0.00653 ± 0.078.
The matching figures for GACUAGCAAUAUUACGAGGU: -2.34 ± 0.2 and -1.64 ± 0.2.
Taken in the same sequence, the figures for GACUAGCAAUAUUACGAGUU were -4.75 ± 0.32 and -2.74 ± 0.3.
The matching figures for GACUAGCAAUAUUACGAUAU: -0.566 ± 0.075 and -0.0805 ± 0.1.
In the case of GACUAGCAAUAUUACGCAAU, the “self-splicing fitness (ln)” value is -1.34 ± 0.19 (30 °C) and -1.38 ± 0.17 (37 °C).
Taken in the same sequence, the figures for GACUAGCAAUAUUACGCCCG were -1.77 ± 0.24 and -0.58 ± 0.28.
In the case of GACUAGCAAUAUUACGCGUA, the “self-splicing fitness (ln)” value (30 °C) is -0.78 ± 0.11 and the “self-splicing fitness (ln)” value (37 °C) was -0.344 ± 0.097.
Taken in the same sequence, the figures for GACUAGCAAUAUUACGGCAC were -0.648 ± 0.14 and 0.581 ± 0.16.
As for GACUAGCAAUAUUACGGCCC, where the note is “37 °C”, the “self-splicing fitness (ln)” value was 0.226 ± 0.4.
Turning to GACUAGCAAUAUUACGGGCA, the “self-splicing fitness (ln)” value by setting is: (30 °C) -0.911 ± 0.072; (37 °C) 0.2 ± 0.085.
Turning to GACUAGCAAUAUUACGUCGA, the “self-splicing fitness (ln)” value is -1.96 ± 0.11 (30 °C) and -0.484 ± 0.1 (37 °C).
As to GACUAGCAAUAUUACGUCUU, the “self-splicing fitness (ln)” value is -0.971 ± 0.099 (30 °C) and -1.39 ± 0.15 (37 °C).
Regarding GACUAGCAAUAUUACGUGUC, the “self-splicing fitness (ln)” value (30 °C) is -2.59 ± 0.42.
Consider GACUAGCAAUAUUACGUGUU, for which the “self-splicing fitness (ln)” value (30 °C) is -2.22 ± 0.11 and the “self-splicing fitness (ln)” value (37 °C) is -2.07 ± 0.17.
The matching figures for GACUAGCAAUAUUACGUUAC: -2.46 ± 0.19 and -1.84 ± 0.22.
The matching figures for GACUAGCAAUAUUACGUUCC: -3.69 ± 0.3 and -2.17 ± 0.23.
With GAGAAGCAAUAUUACGAACA, the “self-splicing fitness (ln)” value runs as follows: (30 °C) -1.05 ± 0.17; (37 °C) -1.57 ± 0.2.
Taken in the same sequence, the figures for GAGAAGCAAUAUUACGACUU were -1.9 ± 0.14 and -1.14 ± 0.14.
As to GAGAAGCAAUAUUACGAUAU, the “self-splicing fitness (ln)” value (30 °C) was -2.18 ± 0.16 and the “self-splicing fitness (ln)” value (37 °C) is -0.855 ± 0.15.
Taken in the same sequence, the figures for GAGAAGCAAUAUUACGAUUC were -0.752 ± 0.094 and -0.653 ± 0.15.
Taken in the same sequence, the figures for GAGAAGCAAUAUUACGAUUU were -0.24 ± 0.081 and 0.493 ± 0.087.
On to GAGAAGCAAUAUUACGCAGU, for which the “self-splicing fitness (ln)” value reads like this: (30 °C) -3.98 ± 0.23; (37 °C) -2.06 ± 0.17.
As for GAGAAGCAAUAUUACGCCGA, the “self-splicing fitness (ln)” value is, setting by setting: (30 °C) -2.1 ± 0.24; (37 °C) -0.228 ± 0.17.
For GAGAAGCAAUAUUACGCCUG, the “self-splicing fitness (ln)” value was -0.32 ± 0.098 (30 °C) and -0.385 ± 0.17 (37 °C).
Take GAGAAGCAAUAUUACGCGCG: the “self-splicing fitness (ln)” value is -0.394 ± 0.14 (30 °C) and 0.218 ± 0.16 (37 °C).
With GAGAAGCAAUAUUACGCGGU, the “self-splicing fitness (ln)” value was -2.38 ± 0.16 (30 °C) and -0.663 ± 0.16 (37 °C).
The matching figures for GAGAAGCAAUAUUACGCUCG: -1.07 ± 0.14 and 0.735 ± 0.18.
Take GAGAAGCAAUAUUACGGAGA: the “self-splicing fitness (ln)” value reads like this: (30 °C) -3.8 ± 0.24; (37 °C) -2.04 ± 0.28.
As to GAGAAGCAAUAUUACGGGCA, the “self-splicing fitness (ln)” value reads like this: (30 °C) -0.782 ± 0.1; (37 °C) -0.441 ± 0.087.
The matching figures for GAGAAGCAAUAUUACGGUAU: -1.67 ± 0.096 and -1.79 ± 0.17.
The matching figures for GAGAAGCAAUAUUACGGUUA: -1.13 ± 0.12 and -0.315 ± 0.13.
On to GAGAAGCAAUAUUACGUAUG, for which the “self-splicing fitness (ln)” value reads like this: (30 °C) -2.37 ± 0.14; (37 °C) -1.29 ± 0.14.
For GAGAAGCAAUAUUACGUAUU, the “self-splicing fitness (ln)” value runs as follows: (30 °C) -3.16 ± 0.14; (37 °C) -3.08 ± 0.23.
The matching figures for GAGAAGCAAUAUUACGUCGU: -2.16 ± 0.075 and -0.855 ± 0.077.
As for GAGAAGCAAUAUUACGUGCA, the “self-splicing fitness (ln)” value reads like this: (30 °C) -0.762 ± 0.084; (37 °C) -0.666 ± 0.094.
For GAGCAGCAAUAUUACGAAAU, the “self-splicing fitness (ln)” value by setting is: (30 °C) -2.45 ± 0.21; (37 °C) -1.84 ± 0.21.
The matching figures for GAGCAGCAAUAUUACGACUC: -2.56 ± 0.19 and 0.053 ± 0.17.
The matching figures for GAGCAGCAAUAUUACGAUAA: -2.23 ± 0.29 and -1.76 ± 0.24.
